From patent US20160264653A1 (published 2016)
Substitutions are numbered along the chain they refer to. Blank lines part the entries; values can stand above or below the binder they belong to.

Assays:
[1] = target: T1, mouse ephrin-A4 homolog (recombinantly expressed, monomeric) (mouse, UniProt O08542 26-175); test: label-free interaction analysis
T1 chain: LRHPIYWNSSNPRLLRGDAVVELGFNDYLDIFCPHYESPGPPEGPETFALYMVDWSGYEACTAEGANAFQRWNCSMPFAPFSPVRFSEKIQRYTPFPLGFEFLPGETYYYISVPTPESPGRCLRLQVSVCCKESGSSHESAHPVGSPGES

[2] = target: T2, human ephrin-A4-His (UniProt P52798 26-170); test: label-free interaction analysis
T2 chain: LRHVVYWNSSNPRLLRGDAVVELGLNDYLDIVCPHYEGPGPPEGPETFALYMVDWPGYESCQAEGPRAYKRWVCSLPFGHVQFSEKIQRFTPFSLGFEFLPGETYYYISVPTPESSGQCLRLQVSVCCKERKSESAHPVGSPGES

[3] = target: T2, human ephrin-A4-His; test: ForteBIO
[4] = target: T2, human ephrin-A4-His; test: Biacore
[5] = target: T3, hEFNA4-Fc (human, UniProt P01857 100-330 = IgG part); test: cell surface binding inhibition (flow cytometry); 1.0 ug/ml hEphrinA4-Fc
[6] = target: T4, mEFNA4-Fc (mouse;human, UniProt O08542 26-176; P01857 100-330 = IgG part); test: cell surface binding inhibition (flow cytometry); 1.0 ug/ml mEphrinA4-Fc
[7] = target: T4, mEFNA4-Fc; test: cell surface binding inhibition (flow cytometry); 0.1 ug/ml mEphrinA4-Fc
[8] = target: T3, hEFNA4-Fc; test: cell surface binding inhibition (flow cytometry); 0.1 ug/ml hEphrinA4-Fc

Kd [3]: 20 nM
B2: SC4.2 (antibody, V domains shown)
VH: QVQLQQSGAELVRPGTSVTLSCKASGYTFTDYEMHWVKQTPVLGLEWIGAFDPETGNTVYNQKFKGKATLTADKSPNTAYMELISLTSEDSAVYYCARGYPAWFGYWGQGTLVTVSA
VL: DVVMTQIPLSLPVTLGDQASISCRSSQSLAHTNGNTYLHWYLQKPGQSPKLLIYKVSNRFSGVPDRFSGSGSGTDFTLKISRVEAEDLGVYFCSQDTHVPPTFGGGTKLEMK

Kd [2]: 3.1 nM
B5: SC4.22 (Murine mAb) (antibody, V domains shown)
VH: QIQLQQSGPELVKPGASVKISCKASGYTFTGYYIHWVKQRPGQGLEWIGWIYPGNFNTKYNERFKGMATLTVDTSSSTAYMQLSSLTSEDSAVYLCAREDGSPYYAMDYWGQGTSVTVSS
VL: DVVMTQTPLSLPVSLGDQASISCRSSQSLVHSNGNTFLYWYLQKPGQSPKLLIYRVSNRFSGVPDRFSGSGSGTDFTLKISRVEAEDLGVYFCFQATHVPWTFGGGTKLEIK

Kd [1]: > 100 nM
B6: hSC4.47 (antibody, V domains shown)
VH: QVQLVQSGAEVKKPGASVKVSCKASGYTFTYFYMNWVRQAPGQGLEWVGQINPNNGGTAYAQKFQGRVTMTRDTSTSTVYMELSSLRSEDTAVYYCARWVGTHYFDYWGQGTTLTVSS
VL: EIVLTQSPATLSLSPGERATLSCRASQSVSSSSYTYIHWYQQKPGQAPRLLINFASNLESGIPARFSGSGSGTDFTLTISSLEPEDFAVYYCQHSWEIPPTFGGGTKLEIK

IC50 [5]: 1.54 µg/mL | IC50 [6]: ~0.0217 µg/mL | IC50 [7]: ~0.0183 µg/mL | IC50 [8]: ~0.124 µg/mL
B8: E47.3 Ab (antibody, V domains shown)
VH: EVQLQQSGPELVKPGASVKISCTASGYTFTYFYMNWVKQSQGKSLEWVGQINPNNGGTAYNHKFRGKTTLTVDKSSNTAFMELRSLTSEDSAVYFCARWVGTHYFDYWGQGTTLTVSS
VL: DIVLTQSPASLPVSLGQRATISCRASQSVSSSSYTYIHWYQQKPGQPPKLLINFASNLESGVPARFSVSGSGTDFTLNIHPVEGEDTATYYCQHSWEIPPTFGGGTKLEIK

IC50 [5]: 20.1 µg/mL | IC50 [6]: 16.7 µg/mL | IC50 [7]: 2.09 µg/mL | IC50 [8]: 1.14 µg/mL
B9: E15.3 Ab (antibody, V domains shown)
VH: EVQVVESGGDLVKPGGSLKLSCAASGFTFSTYGMSWVRQTPDKRLEWVATISSGGTYTYYPDSVKGRFKISRDNAKDTLYLQMSSLKSEDTAMYYCTRHDPNDGYYFLFAYWGQGTLVIVSA
VL: SIGRTQIPKFLPVSAGDRVTMTCKASQSVGNNVAWYQQKAGQSPKLLIYYASNRYTGVPDRFTGSGSGTDFTFTISSVQVEDLAVYFCQQHYSSPLTFGAGTKLELK

Kd [4]: 4.8 nM
B10: SC4.15 (antibody, V domains shown)
VH: B9 VH
VL: B9 VL

Kd [4]: 0.3 nM
B12: SC4.5 (antibody, V domains shown)
VH: QVQLKQSGPGLVAPSQSLSITCTVSGFSLTTYGVDWVRQSPGKGLEWLGVIWGGGSTNYNSALKSRLSISKDNSKSQVFLKMNSLQTDDTAMYYCASDWAYWGQGTLVTVSA
VL: DIVMTQSQKFMSTSVGDRVTVTCKASQNVGTNVAWFQQKSGQSPKPLIHSASYRYSGVPDRFTGSGSGTDFTLTITNVQSEDLVAYFCQQYKRYPYTFGGGTKLEIKR

The next lines start with the binder.

B1: hSC4.15 (antibody, V domains shown)
VH: EVQLVESGGGLVKPGGSLRLSCAASGFTFSTYGMSWVRQAPGKGLEWVATISSGGTYTYYPDSVKGRFKISRDNAKNSLYLQMNSLRAEDTAVYYCTRHDPNDGYYFLFAYWGQGTLVTVSS
VL: EIVLTQSPGTLSLSPGERATLSCKASQSVGNNVAWYQQKPGQAPRLLIYYASNRYTGIPDRFSGSGSGTDFTLTISRLEPEDFAVYYCQQHYSSPLTFGAGTKLEIK
Kd [1]: 3.4 nM | Kd [2]: 4.8 nM

B3: hSC4.22 (antibody, V domains shown)
VH: QVQLVQSGAEVKKPGASVKVSCKASGYTFTGYYIHWVRQAPGQGLEWMGWIYPGNFNTKYNERFKGRVTMTTDTSTSTAYMELRSLRSDDTAVYYCAREDGSPYYAMDYWGQGTSVTVSS
VL: B5 VL with V2I, P12S, S14T, L15P, D17Q, Q18P, K50Q, L88V, F92Y, L109V
Kd [1]: > 100 nM | Kd [2]: 3.8 nM

B4: SC4.22 (antibody, V domains shown)
VH: B5 VH
VL: B5 VL
Kd [4]: 3.1 nM

B7: SC4.31 (antibody, V domains shown)
VH: QVQLQQPGAELVRPGASVKLSCKASGYTFTRDWMHWIKQRPGQGLDWIGTIHPYDSETHYNQNFKDKATLTVDKSSSTAYMQLSSLTSEDSAVYYCVTFIKTMVDTYYYAMDYWGQGTSVTVSS
VL: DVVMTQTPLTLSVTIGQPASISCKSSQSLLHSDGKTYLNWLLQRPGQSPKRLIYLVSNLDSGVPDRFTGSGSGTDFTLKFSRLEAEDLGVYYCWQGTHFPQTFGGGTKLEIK
Kd [4]: 11 nM

B11: SC4.15 (Murine mAb) (antibody, V domains shown)
VH: B9 VH
VL: B9 VL
Kd [2]: 2.7 nM
